For this experiment, the target named is T1, Biotinylated N-Avitagged-TEAD4^217-434 (UniProt Q15561 217-434, biotin (biotinylated Avitag)).
T1 chain: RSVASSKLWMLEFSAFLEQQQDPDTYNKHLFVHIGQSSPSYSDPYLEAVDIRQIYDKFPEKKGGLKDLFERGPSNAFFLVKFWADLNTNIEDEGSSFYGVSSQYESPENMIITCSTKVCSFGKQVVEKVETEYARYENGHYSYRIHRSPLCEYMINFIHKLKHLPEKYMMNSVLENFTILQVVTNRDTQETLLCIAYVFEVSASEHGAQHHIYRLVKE
Nature of the experiment: FRET.

B1: YAP^50-171 (domain or fragment)
chain: AGHQIVHVRGDSETDLEALFNAVMNPKTANVPQTVPMRLRKLPDSFFKPPEPKSHSRQASTDAGTAGALTPQHVRAHSSPASLQLGAVSPGTLTPTGVVSGPAATPTAQHLRQSSFEIPDDV
Molecule B1 had an IC50 of 11 nM. This lies in the double-digit nanomolar range.

B2: YAP^50-171 with a cysteine inserted at position 172 (domain or fragment)
chain: AGHQIVHVRGDSETDLEALFNAVMNPKTANVPQTVPMRLRKLPDSFFKPPEPKSHSRQASTDAGTAGALTPQHVRAHSSPASLQLGAVSPGTLTPTGVVSGPAATPTAQHLRQSSFEIPDDVC
Molecule B2 yielded an IC50 of 7 nM.

These data come from publication PMC8976148 (2022).
